According to US12291504B2, “Small molecule inhibition of sulfotransferase SULT1A3” (University of Pittsburgh—Of the Commonwealth System of …, priority 2018, dated 2025):

Substrate: Oc1ccc2ccc3cccc4ccc1c2c34
Test: SULT1A3 inhibition studies, 1-HP initial-rate fluorescence assay
Format: biochemical, human
Conditions: other: WT enzyme; saturating PAPS (500 μM, 17 × Km); pH 7.5; 25.0 °C
Description: The initial rates of SULT catalyzed 1-HP sulfonation are plotted as a function of inhibitor concentration, and are normalized relative to [inhibitor]=0. Enzyme activity was monitored by the sulfonation dependent change in 1-HP fluorescence (λex=325 nm, λem=370 nm). Less than 5% of the concentration-limiting substrate converted at the reaction endpoint was consumed during initial-rate measurements. Each point is the average of three independent determinations. Conditions: SULT (20 nM, active sites), PAPS (0.50 mM, 17×Km), 1-HP (5.0 μM, 61×Km), KPO4 (50 mM), pH 7.5, 25±2° C.
(§1) Initial-Rate Studies. Initial-rate parameters for the labeled or mutant SULT1A3 constructs were determined using a previously described 1-HP assay (25). […] Reactions were monitored via fluorescence change associated with the conversion of 1-HP to 1-HP-S (λex=325 nm, λem=370 nm). […] Reaction progress curves were analyzed to obtain initial-rate parameters as described previously (26,27). […]
as §1, with “(47).” for “(25).”, “(48,49).” for “(26,27).”

B1: SULT1A3 (Homo sapiens) (protein)
chain: MELIQDTSRPPLEYVKGVPLIKYFAEALGPLQSFQARPDDLLINTYPKSGTTWVSQILDMIYQGGDLEKCNRAPIYVRVPFLEVNDPGEPSGLETLKDTPPPRLIKSHLPLALLPQTLLDQKVKVVYVARNPKDVAVSYYHFHRMEKAHPEPGTWDSFLEKFMAGEVSYGSWYQHVQEWWELSRTHPVLYLFYEDMKENPKREIQKILEFVGRSLPEETMDFMVQHTSFKEMKKNPMTNYTTVPQELMDHSISPFMRKGMAGDWKTTFTVAQNERFDADYAEKMAGCSLSFRSEL
notes: Wild-type and mutant SULT1A3 coding regions were inserted into a pGEX-6P expression vector; N-His/GST/MBP triple-tag (N, cleaved yes); made in house; host or cells: E. coli BL21(DE3)
  Km: 82 (3) nM
  kcat: 2 s⁻¹
